Data on one molecule can be found in patent US20220119534A1 (DRAGONFLY THERAPEUTICS, published 2022).

Changes are numbered by the printed parent chain. Names and notes keep the numbering of the source.

Assay [1] addresses T1, Human CLEC12A expressed on cells (Ba/F3-hCLEC12A, PL21, HL60) (human, UniProt Q5QGZ9 1-265).
T1 sequence: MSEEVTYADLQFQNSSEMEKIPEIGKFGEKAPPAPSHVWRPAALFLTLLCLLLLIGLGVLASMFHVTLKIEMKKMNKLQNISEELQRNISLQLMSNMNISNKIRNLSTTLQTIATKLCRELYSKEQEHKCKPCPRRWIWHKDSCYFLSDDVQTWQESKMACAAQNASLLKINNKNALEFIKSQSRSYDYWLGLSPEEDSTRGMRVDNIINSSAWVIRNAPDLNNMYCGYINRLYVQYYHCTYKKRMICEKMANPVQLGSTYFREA
As to the kind of experiment: cell-based or functional assay.

For assay [2], the target named is T2, Human CLEC12A-His (recombinant, K244 WT) (human, UniProt Q5QGZ9 65-265).
T2 construct: Made in house (Dragonfly Tx); also called hCLEC12A; hCLEC12A-His; not shown: His tag
T2 sequence: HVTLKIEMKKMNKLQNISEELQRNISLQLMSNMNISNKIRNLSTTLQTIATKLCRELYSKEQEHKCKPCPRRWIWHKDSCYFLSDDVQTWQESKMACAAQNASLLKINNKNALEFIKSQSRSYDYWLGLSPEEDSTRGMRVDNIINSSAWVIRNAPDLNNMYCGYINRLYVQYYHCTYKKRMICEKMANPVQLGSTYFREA
As to the kind of experiment: SPR, two-state fit (kd1). A general note: Surface plasmon resonance follows binding to a sensor surface in real time, without labels.

In a further assay the target is T3, Human CLEC12A-K244Q-His (human, UniProt Q5QGZ9 65-265).
T3 construct: also called hCLEC12A (Q244); CLEC12A (Q244); not shown: His tag
T3 chain: T2 sequence with K180Q
As to the kind of experiment: SPR, two-state fit (kd1).

Description for Human CLEC12A-K244Q-His: Briefly, human Fc specific antibodies were covalently immobilized at a density ˜8000-10000 resonance units (RU) on carboxy methyl dextran matrix of a CM5 biosensor chip via amine-coupling chemistry to create an anti-hFc IgG chip. […] Association was monitored for 300 seconds and dissociation was monitored for 600 seconds. Surfaces were regenerated between cycles with three pulses of 10 mM glycine-HCl, pH 1.7 injected for 20 seconds at 100 μl/min. HBS-EP+ (1×) with 0.1 mg/ml BSA was used as running buffer throughout the experiment. Experiments were performed at physiological temperature of 37° C. To obtain kinetic rate constants and overall binding affinity, double-referenced data were fit to a two-state kinetic model using Biacore 8K Insight Evaluation software (Cytiva).

B1: AB0089 TriNKET (bispecific antibody, human IgG1, kappa)
chain: QLQLQESGPGLVKPSETLSLTCTVSGFSLTNYGLHWIRQPPGKCLEWIGVIWVGGATDYNPSLKSRVTISVDTSKNQFSLKLSSVQAADTAVYYCAKGDYGDTLDYWGQGTLVTVSSGGGGSGGGGSGGGGSGGGGSDIQMTQSPSSLSASVGDRVTITCHASQNINFWLSWYQQKPGKAPKLLIYEASNLHTGVPSRFSGSGSGTDFTLTISSLQPEDFATYYCQQSHSYPLTFGCGTKLEIKGSDKTHTCPPCPAPELLGGPSVFLFPPKPKDTLMISRTPEVTCVVVDVSHEDPEVKFNWYVDGVEVHNAKTKPREEQYNSTYRVVSVLTVLHQDWLNGKEYKCKVSNKALPAPIEKTISKAKGQPREPRVYTLPPCRDELTKNQVSLTCLVKGFYPSDIAVEWESNGQPENNYKTTPPVLVSDGSFTLYSKLTVDKSRWQQGNVFSCSVMHEALHNHYTQKSLSLSPG
heavy: EVQLVESGGGLVKPGGSLRLSCAASGFTFSSYSMNWVRQAPGKGLEWVSSISSSSSYIYYADSVKGRFTISRDNAKNSLYLQMNSLRAEDTAVYYCARGAPIGAAAGWFDPWGQGTLVTVSSASTKGPSVFPLAPSSKSTSGGTAALGCLVKDYFPEPVTVSWNSGALTSGVHTFPAVLQSSGLYSLSSVVTVPSSSLGTQTYICNVNHKPSNTKVDKKVEPKSCDKTHTCPPCPAPELLGGPSVFLFPPKPKDTLMISRTPEVTCVVVDVSHEDPEVKFNWYVDGVEVHNAKTKPREEQYNSTYRVVSVLTVLHQDWLNGKEYKCKVSNKALPAPIEKTISKAKGQPREPQVCTLPPSRDELTENQVSLTCLVKGFYPSDIAVEWESNGQPENNYKTTPPVLDSDGSFFLYSWLTVDKSRWQQGNVFSCSVMHEALHNHYTQKSLSLSPG
light: DIQMTQSPSSVSASVGDRVTITCRASQGISSWLAWYQQKPGKAPKLLIYAASSLQSGVPSRFSGSGSGTDFTLTISSLQPEDFATYYCQQGVSFPRTFGGGTKVEIKRTVAAPSVFIFPPSDEQLKSGTASVVCLLNNFYPREAKVQWKVDNALQSGNSQESVTEQDSKDSTYSLSSTLTLSKADYEKHKVYACEVTHQGLSSPVTKSFNRGEC
notes: F3' format heterodimer of three chains; human IgG1 Fc with EW-RVT and Y349C/S354C mutations; also called AB0089 Lot AB0089-002; CLEC12A TriNKET AB0089
By koff is commonly meant a measure of how fast the partners let go of each other. Take B1: the “EC50, rested NK cell lysis of PL21 cells (mean of six donors)” value in assay [1] was determined as 0.25 nM. The koff was found to be 0.0398 s⁻¹ in assay [2] and 0.00353 s⁻¹ with Human CLEC12A-K244Q-His.
